This test addresses Recombinant His-tagged S6K1 T389E/S424D/S429D (S6K1*), in vitro translated (human, UniProt P23443-2 1-502, T389E | S424D | S429D). In words: SPR. (SPR reads the build-up and loss of mass on a sensor chip optically.)

Experimental findings from article PMC6415305 (Molecular cell, 2019) are described below.

Recombinant His-tagged S6K1 T389E/S424D/S429D (S6K1*), in vitro translated, sequence (P23443 24-525 T412E/S447D/S452D): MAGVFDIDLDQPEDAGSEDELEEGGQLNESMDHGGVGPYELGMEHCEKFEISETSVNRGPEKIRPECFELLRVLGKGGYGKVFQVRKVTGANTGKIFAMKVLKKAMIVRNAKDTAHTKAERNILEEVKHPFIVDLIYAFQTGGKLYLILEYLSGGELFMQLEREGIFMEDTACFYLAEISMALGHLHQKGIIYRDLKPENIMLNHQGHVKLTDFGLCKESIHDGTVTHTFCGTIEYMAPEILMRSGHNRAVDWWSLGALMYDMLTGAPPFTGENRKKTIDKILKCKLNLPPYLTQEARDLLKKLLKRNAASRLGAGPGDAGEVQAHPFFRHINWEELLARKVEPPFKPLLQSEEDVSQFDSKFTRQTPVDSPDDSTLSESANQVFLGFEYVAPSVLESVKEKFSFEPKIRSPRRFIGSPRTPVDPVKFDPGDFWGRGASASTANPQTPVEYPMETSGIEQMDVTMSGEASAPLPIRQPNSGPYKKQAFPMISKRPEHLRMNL

B1: EPRS linker (Pro683 to Asn1023 of human glutamyl-prolyl tRNA synthetase), His tag removed (domain or fragment, UniProt P07814 683-1023, looked up)
chain: PYEPVSPYSCKEAPCVLIYIPDGHTKEMPTSGSKEKTKVEATKNETSAPFKERPTPSLNNNCTTSEDSLVLYNRVAVQGDVVRELKAKKAPKEDVDAAVKQLLSLKAEYKEKTGQEYKPGNPPAEIGQNISSNSSASILESKSLYDEVAAQGEVVRKLKAEKSPKAKINEAVECLLSLKAQYKEKTGKEYIPGQPPLSQSSDSSPTRNSEPAGLETPEAKVLFDKVASQGEVVRKLKTEKAPKDQVDIAVQELLQLKAQYKSLIGVEYKPVSATGAEDKDKKKKEKENKSEKQNKPQKQNDGQRKDPSKNQGGGLSSSGAGEGQGPKKQTRLGLEAKKEEN
For the molecule B1, the Kd – broadly, a measure of binding affinity in units of concentration – turned out to be 56 nM.
